Reference: patent US7374919B2 (GlycoZym ApS, priority 1998, dated 2008)

Legend:
Assay type in all cases: biochemical
Details in all cases: glycoproteins at 10 mg/ml
β4Gal-T2 = target: T1, β4Gal-T2 (Homo sapiens, UniProt O60909); experiment: β4Gal-T2 galactosyltransferase activity assay (soluble enzyme, media of infected Sf9 cells)
T1 construct: An expression construct designed to encode amino acid residues 31-372 of β4Gal-T2 was prepared by RT-PCR; secretion signal of vector pAcGP67 (gp67 leader; own knowledge of the vector) (N); made in house; host or cells: Sf9 (Spodoptera frugiperda) cells, baculovirus; unpurified culture supernatant
T1 sequence (O60909 31-372): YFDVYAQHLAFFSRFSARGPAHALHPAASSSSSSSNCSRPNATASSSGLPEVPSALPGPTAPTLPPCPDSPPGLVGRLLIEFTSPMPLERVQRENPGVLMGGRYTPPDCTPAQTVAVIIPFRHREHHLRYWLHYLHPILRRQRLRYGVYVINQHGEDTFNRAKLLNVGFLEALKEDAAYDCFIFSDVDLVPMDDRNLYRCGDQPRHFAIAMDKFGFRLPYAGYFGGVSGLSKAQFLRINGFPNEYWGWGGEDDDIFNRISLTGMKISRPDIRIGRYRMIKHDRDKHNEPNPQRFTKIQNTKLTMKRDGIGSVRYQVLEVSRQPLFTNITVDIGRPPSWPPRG
Excerpt: (§1) The PCR product were cloned into the BamHI site of pAcGP67 (Pharmingen), and the construct sequenced to verify correct insertion and sequence. The plasmid pAcGP67-β4Gal-T2-sol was co-transfected with Baculo-Goldä DNA (Pharmingen) as described previously (Bennett et al., 1996). Recombinant Baculo-virus were obtained after two successive amplifications in Sf9 cells grown in serum-containing medium, and titres of virus were estimated by titration in 24-well plates with monitoring of enzyme activities. Controls included pAcGP67-β4Gal-T3-sol (Almeida et al., 1997) and pAcGP67-GalNAc-T3-sol (Bennett et al., 1996).
(§2) Standard assays were performed in […] total reaction mixtures containing 25 mM Tris (pH 7.5), 10 mM MnCl2, 0.25% Triton X-100, […] UDP-[^14C]-Gal (2,300 cpm/nmol) (Amersham), and varying concentration of acceptor substrates (Sigma) (see Table I for structures). The soluble constructs were assayed with […] of culture supernatant from infected cells, whereas the full length construct was assayed with 1% Triton X-100 homogenates of washed cells. Bovine milk P1,4Gal-transferase (Sigma) was used as control.
Reaction products were quantified by Dowex-1 chromatography. […] The transfer of Gal was evaluated after precipitation by filtration through Whatman GF/C glass fiber filters.

Bovine milk β4Gal-T = target: T2, Bovine milk β4Gal-T (Bos taurus, UniProt P08037); experiment: Bovine milk β4Gal-transferase activity assay (control enzyme)
T2 construct: Purified bovine milk enzyme; purchased Sigma; host or cells: bovine milk
T2 sequence (P08037 79-402 limits assumed): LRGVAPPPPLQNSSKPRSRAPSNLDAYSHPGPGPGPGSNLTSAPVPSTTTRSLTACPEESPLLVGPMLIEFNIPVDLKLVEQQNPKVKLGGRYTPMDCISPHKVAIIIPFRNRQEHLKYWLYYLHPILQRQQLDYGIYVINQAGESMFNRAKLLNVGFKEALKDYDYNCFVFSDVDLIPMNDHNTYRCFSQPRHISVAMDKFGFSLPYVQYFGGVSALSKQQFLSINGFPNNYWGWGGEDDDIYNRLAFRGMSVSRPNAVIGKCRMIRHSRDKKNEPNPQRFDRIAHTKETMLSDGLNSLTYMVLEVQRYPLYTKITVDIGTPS
Experimental: as §2
(§3) Reaction products were quantified by Dowex-1 chromatography. Assays with hen egg Ovalbumin (Sigma), asialo-fetuin (Sigma), and asialo-agalacto-fetuin (Sigma, treated with bgalactosidase) were performed with the standard reaction mixture modified to contain […] UDP-Gal, 54 mM NaCl, and 0.5 mg Ovalbumin. The transfer of Gal was evaluated after precipitation by filtration through Whatman GF/C glass fiber filters.

β4Gal-T3 = target: T3, β4Gal-T3 (Homo sapiens, UniProt O60512); experiment: β4Gal-T3 galactosyltransferase activity assay (soluble enzyme, Sf9 media)
T3 construct: media from Sf9 cells expressing secreted forms of either β4Gal-T2 or -T3 were used as enzyme sources; secretion signal of vector pAcGP67 (gp67 leader; own knowledge of the vector) (N); made in house; host or cells: Sf9 cells, baculovirus; unpurified culture supernatant
Experimental: as §1, with “An expression construct designed to encode amino acid residues 31-372 of β4Gal-T2 was prepared by RT-PCR with mRNA from Colo205 cell line, using the primer pair EBER100FOR (5′-[…]; SEQ ID NO: 9) and EBER114 (5′-[…]; SEQ ID NO: 10) with BamH1 restriction sites (FIG. 2). The PCR” for “The PCR”
as §2, §3

T3 sequence (O60512 32-393 limits assumed): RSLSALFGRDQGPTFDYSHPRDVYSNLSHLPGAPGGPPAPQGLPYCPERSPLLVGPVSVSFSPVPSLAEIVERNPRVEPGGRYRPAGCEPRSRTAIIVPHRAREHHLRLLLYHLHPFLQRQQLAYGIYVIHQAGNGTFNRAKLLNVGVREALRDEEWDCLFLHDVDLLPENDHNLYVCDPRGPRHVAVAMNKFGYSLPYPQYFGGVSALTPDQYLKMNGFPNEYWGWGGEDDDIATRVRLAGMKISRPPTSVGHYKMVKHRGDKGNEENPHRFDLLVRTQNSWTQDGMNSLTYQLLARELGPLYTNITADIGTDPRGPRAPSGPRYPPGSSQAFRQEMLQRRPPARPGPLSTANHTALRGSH

Asialo-Fetuin: glycoprotein acceptor, asialo-fetuin (Sigma)
β4Gal-T2 activity with acceptor substrate (β4Gal-T2): 0.2 nmol/min/mL | Bovine milk β4Gal-T activity with acceptor substrate (Bovine milk β4Gal-T): 0.1 nmol/min/µg | β4Gal-T3 activity with acceptor substrate (β4Gal-T3): 0.0 nmol/min/mL

Asialo-agalacto-Fetuin: glycoprotein acceptor; asialo-fetuin (Sigma) treated with bgalactosidase
β4Gal-T2 activity with acceptor substrate (β4Gal-T2): 2.8 nmol/min/mL | Bovine milk β4Gal-T activity with acceptor substrate (Bovine milk β4Gal-T): 0.8 nmol/min/µg | β4Gal-T3 activity with acceptor substrate (β4Gal-T3): 0.7 nmol/min/mL

B1: Hen egg albumin: glycoprotein acceptor, hen egg Ovalbumin (Sigma) (protein, UniProt P01012 2-386, looked up)
Ovalbumin: GSIGAASMEFCFDVFKELKVHHANENIFYCPIAIMSALAMVYLGAKDSTRTQINKVVRFDKLPGFGDSIEAQCGTSVNVHSSLRDILNQITKPNDVYSFSLASRLYAEERYPILPEYLQCVKELYRGGLEPINFQTAADQARELINSWVESQTNGIIRNVLQPSSVDSQTAMVLVNAIVFKGLWEKAFKDEDTQAMPFRVTEQESKPVQMMYQIGLFRVASMASEKMKILELPFASGTMSMLVLLPDEVSGLEQLESIINFEKLTEWTSSNVMEERKIKVYLPRMKMEEKYNLTSVLMAMGITDVFSSSANLSGISSAESLKISQAVHAAHAEINEAGREVVGSAEAGVDAASVSEEFRADHPFLFCIKHIATNAVLFFGRCVSP
β4Gal-T2 activity with acceptor substrate (β4Gal-T2): 2.0 nmol/min/mL | Bovine milk β4Gal-T activity with acceptor substrate (Bovine milk β4Gal-T): 0.7 nmol/min/µg | β4Gal-T3 activity with acceptor substrate (β4Gal-T3): 1.0 nmol/min/mL
